Results reported in patent publication US20220064221A1, “BICYCLIC PEPTIDE LIGANDS SPECIFIC FOR INTEGRIN ALPHA-V-BETA-3” (BicycleTx Limited, priority 2019, published 2022).
Starred links: 1 amine or outer side, 2 acyl side, 3 side chain; linkers in the order of their positions; H or OH if unused. Positions of bridges follow the written chain, without caps; N, C: chain ends. Non-standard residues stand in square brackets, D forms with d. No end group written: not given here. *: point of attachment. FITC = O=C1OC2(c3ccc(O)cc3Oc3cc(O)ccc32)c2ccc(NC(=S)*)cc21; TATA = O=C(CC[*:1])N1CN(C(=O)CC[*:2])CN(C(=O)CC[*:3])C1; Ahx = NCCCCCC(=O)O; Fl = fluorescein; Sar = CNCC(=O)O

What was measured:
integrin αvβ3 [1] = target: integrin αvβ3 (Homo sapiens, UniProt P05106+P06756); test: Human FP direct binding assay; conditions: Table 3; fluorescently modified peptides; Integrin aVb3
Method: (§1) Affinity of selected fluorescently modified peptides of the invention for integrin αvβ3 (Kd) (and αvβ5 to test for selectivity) was determined using a human direct binding assay analogous to that described in Schottelius et al. (2009) Acc. Chem. Res. 42, 969-980.

integrin αvβ3 [2] = target: T1, integrin αvβ3 (human, UniProt P06756 31-992; P05106 27-718); test: Human FP Direct binding
T1 construct: also called Integrin aVb3
Method: as §1

T1 sequence (P06756 31-992, chain 1 of 2): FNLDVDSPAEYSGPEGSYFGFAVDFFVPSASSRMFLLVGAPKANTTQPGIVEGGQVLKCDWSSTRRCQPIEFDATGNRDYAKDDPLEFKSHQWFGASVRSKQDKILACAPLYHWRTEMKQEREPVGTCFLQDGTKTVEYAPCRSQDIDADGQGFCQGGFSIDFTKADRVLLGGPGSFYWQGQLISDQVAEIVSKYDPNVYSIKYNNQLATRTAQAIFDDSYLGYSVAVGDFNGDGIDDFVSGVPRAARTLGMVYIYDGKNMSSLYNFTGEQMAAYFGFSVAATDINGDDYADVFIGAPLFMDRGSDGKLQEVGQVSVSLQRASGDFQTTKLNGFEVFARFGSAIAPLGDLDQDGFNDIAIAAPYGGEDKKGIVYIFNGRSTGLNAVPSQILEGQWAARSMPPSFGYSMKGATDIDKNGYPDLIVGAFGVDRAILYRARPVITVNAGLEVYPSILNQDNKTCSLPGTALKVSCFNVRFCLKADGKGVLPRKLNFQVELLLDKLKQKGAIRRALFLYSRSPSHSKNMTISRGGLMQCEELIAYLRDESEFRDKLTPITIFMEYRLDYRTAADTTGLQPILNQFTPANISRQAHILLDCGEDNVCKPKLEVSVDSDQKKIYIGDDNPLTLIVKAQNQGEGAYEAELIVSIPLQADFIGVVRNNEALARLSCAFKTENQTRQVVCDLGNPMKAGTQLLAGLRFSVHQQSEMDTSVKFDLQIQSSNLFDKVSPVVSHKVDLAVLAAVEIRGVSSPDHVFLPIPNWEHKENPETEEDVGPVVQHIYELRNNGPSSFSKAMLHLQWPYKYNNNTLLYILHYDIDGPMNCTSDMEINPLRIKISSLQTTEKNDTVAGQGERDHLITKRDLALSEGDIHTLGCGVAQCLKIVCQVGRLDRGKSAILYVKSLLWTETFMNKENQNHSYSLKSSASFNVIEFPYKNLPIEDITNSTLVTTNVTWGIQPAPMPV
T1 sequence (P05106 27-718, chain 2 of 2): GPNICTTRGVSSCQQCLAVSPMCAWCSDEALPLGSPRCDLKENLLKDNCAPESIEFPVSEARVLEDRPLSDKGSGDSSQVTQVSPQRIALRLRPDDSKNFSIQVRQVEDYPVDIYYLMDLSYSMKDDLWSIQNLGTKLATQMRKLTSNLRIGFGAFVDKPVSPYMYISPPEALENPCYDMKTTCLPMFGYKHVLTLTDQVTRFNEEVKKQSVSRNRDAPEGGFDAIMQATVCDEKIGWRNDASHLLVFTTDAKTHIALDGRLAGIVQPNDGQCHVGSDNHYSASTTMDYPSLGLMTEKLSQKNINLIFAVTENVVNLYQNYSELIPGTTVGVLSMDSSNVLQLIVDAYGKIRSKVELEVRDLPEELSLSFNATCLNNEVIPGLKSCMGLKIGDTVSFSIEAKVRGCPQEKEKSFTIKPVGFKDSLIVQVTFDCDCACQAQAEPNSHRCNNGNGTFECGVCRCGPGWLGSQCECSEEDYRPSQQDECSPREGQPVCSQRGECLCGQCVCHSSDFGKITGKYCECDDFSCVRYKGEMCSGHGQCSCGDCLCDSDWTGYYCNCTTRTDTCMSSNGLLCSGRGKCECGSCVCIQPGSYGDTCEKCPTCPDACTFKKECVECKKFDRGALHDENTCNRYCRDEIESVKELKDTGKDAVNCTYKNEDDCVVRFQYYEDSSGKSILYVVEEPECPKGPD
Sequence of integrin αvβ3 (Homo sapiens, UniProt P05106+P06756) (P06756 31-889 limits assumed): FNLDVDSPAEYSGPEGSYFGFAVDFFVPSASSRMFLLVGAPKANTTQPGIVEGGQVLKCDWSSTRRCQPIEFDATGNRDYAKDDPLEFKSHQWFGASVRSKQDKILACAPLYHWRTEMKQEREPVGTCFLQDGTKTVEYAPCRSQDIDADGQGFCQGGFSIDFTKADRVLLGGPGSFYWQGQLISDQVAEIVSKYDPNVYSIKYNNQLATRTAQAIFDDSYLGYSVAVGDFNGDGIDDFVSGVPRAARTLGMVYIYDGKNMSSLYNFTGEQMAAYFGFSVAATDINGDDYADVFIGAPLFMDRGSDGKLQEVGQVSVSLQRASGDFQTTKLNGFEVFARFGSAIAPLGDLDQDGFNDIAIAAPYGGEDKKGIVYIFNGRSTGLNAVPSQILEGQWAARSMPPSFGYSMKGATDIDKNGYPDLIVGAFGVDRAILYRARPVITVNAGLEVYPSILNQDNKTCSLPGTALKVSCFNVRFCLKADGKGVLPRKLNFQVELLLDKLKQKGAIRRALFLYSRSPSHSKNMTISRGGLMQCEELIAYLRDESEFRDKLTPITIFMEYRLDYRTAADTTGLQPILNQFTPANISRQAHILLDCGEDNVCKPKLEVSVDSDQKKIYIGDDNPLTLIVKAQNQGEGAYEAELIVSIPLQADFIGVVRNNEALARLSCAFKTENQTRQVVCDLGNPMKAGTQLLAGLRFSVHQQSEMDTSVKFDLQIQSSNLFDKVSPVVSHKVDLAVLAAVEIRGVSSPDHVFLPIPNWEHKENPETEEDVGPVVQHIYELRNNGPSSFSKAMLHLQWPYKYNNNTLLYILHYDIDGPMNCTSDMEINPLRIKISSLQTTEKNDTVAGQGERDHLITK
Sequence of integrin αvβ3 (Homo sapiens, UniProt P05106+P06756) (P06756 891-1048 partner limits assumed): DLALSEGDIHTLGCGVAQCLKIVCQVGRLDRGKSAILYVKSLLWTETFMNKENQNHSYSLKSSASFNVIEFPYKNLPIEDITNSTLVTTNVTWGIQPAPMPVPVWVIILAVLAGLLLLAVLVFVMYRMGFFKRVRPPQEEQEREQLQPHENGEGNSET
Sequence of integrin αvβ3 (Homo sapiens, UniProt P05106+P06756) (P05106 27-788): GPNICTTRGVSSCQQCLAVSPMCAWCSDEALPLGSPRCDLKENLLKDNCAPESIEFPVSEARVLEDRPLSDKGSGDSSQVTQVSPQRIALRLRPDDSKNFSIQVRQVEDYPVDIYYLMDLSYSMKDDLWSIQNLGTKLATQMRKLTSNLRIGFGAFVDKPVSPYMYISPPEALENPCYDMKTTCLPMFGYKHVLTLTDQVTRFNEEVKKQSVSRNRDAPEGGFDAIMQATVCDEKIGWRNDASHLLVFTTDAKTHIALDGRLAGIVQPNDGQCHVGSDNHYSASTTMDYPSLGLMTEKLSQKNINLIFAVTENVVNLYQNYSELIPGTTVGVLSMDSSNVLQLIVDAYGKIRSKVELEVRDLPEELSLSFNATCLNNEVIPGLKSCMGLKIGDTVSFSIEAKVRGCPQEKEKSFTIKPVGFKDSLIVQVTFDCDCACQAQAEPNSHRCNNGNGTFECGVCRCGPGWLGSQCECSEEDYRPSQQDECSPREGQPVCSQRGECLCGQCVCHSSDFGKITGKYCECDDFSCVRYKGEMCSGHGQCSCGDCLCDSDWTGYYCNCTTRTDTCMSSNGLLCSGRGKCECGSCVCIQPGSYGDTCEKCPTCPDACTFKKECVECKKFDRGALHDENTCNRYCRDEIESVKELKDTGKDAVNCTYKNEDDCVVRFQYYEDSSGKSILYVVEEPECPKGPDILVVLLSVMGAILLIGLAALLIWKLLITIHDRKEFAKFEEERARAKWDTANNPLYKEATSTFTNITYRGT

| Kd (integrin αvβ3 [2]) [nM] | Molecule | Kd (integrin αvβ3 [1]) [nM] |
| --- | --- | --- |
| – | {FITC-Ahx}-GRGSSP [BCY7766] | 1.15 |
| 0.05 | Ac-CPHIGRTDCPPCA[Sar][Sar][Sar][Sar][Sar][Sar]K(Fl) (linker 1-9-12 via TATA) [BCY7508] | – |
| 1.15 | {FITC-Ahx}-GRGSSP (also called FITC-Ahx-GRGSSP) [BCY7766] | – |
